Data set [1] has as its target mouse anti-human BChE monoclonal antibody B2 18-5 (mouse). The data set is described as follows: capture on immobilised antibody, activity assay of the unbound supernatant; hupresin-purified BChE (C4 and C5) in 0.02 M procaine, 0.02 M TrisCl pH 7.5 rotated with 0.04 mL B2 18-5 Sepharose beads at room temperature for 4 h.
Data set [2] concerns the molecule itself. The experiment in a line: native gel or EMSA; pure human BChE from Cohn Fraction IV-4 on a 4-30% nondenaturing polyacrylamide gradient gel, 4 °C, stained for BChE activity. (In general: In EMSA bound probe runs differently from free probe, usually more slowly.)

Sequence of mouse anti-human BChE monoclonal antibody B2 18-5 (mouse) (heavy, as listed by the source, chain 1 of 2): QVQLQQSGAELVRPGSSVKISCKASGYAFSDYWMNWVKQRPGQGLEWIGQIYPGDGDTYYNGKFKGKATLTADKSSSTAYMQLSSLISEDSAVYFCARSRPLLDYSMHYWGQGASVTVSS
Sequence of mouse anti-human BChE monoclonal antibody B2 18-5 (mouse) (light, as listed by the source, chain 2 of 2): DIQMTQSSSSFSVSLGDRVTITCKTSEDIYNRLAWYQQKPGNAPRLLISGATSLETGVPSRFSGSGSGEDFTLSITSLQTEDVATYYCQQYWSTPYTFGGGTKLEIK

On to “human butyrylcholinesterase (BChE) (from UniProt P06276 29-602) (enzyme)”, for which, in data set [1], the percent bound stood at 97%.

B1: human butyrylcholinesterase (BChE) (enzyme, human (endogenous in plasma), UniProt P06276 29-602, looked up)
chain: EDDIIIATKNGKVRGMNLTVFGGTVTAFLGIPYAQPPLGRLRFKKPQSLTKWSDIWNATKYANSCCQNIDQSFPGFHGSEMWNPNTDLSEDCLYLNVWIPAPKPKNATVLIWIYGGGFQTGTSSLHVYDGKFLARVERVIVVSMNYRVGALGFLALPGNPEAPGNMGLFDQQLALQWVQKNIAAFGGNPKSVTLFGESAGAASVSLHLLSPGSHSLFTRAILQSGSFNAPWAVTSLYEARNRTLNLAKLTGCSRENETEIIKCLRNKDPQEILLNEAFVVPYGTPLSVNFGPTVDGDFLTDMPDILLELGQFKKTQILVGVNKDEGTAFLVYGAPGFSKDNNSIITRKEFQEGLKIFFPGVSEFGKESILFHYTDWVDDQRPENYREALGDVVGDYNFICPALEFTKKFSEWGNNAFFYYFEHRSSKLPWPEWMGVMHGYEIEFVFGLPLERRDNYTKAEEILSRSIVKRWANFAKYGNPNETQNNSTSWPVFKSTEQKYLTLNTESTRIMTKLRAQQCRFWTSFFPKVLEMTGNIDEAEWEWKAGFHRWNNYMMDWKNQFNDYTSKKESCVGL
modifications: 9 N-linked glycans
notes: each subunit has 574 amino acids; forty residues at the C-terminus are the tetramerization domain; also called C4; BChE tetramer; source: also purified from Cohn Fraction IV-4 (Q-ceramic ion exchange, hupresin)
Take B1: the binding result in data set [2] is “binds”.

The values above are taken from article PMC6152381, “The C5 Variant of the Butyrylcholinesterase Tetramer Includes a Noncovalently Bound 60 kDa Lamellipodin Fragment” (Molecules : A Journal of Synthetic Chemistry and Natural …, 2017).
